{
  "source": "patent US20230406912A1",
  "about": "“HUMANISED ANTIBODIES AGAINST PATHOGENIC FUNGI” (priority 2020, published 2023)",
  "molecules": {"B1": {"name": "hmAb 2G8 H5/K1: humanised anti β-1,3 glucan mAb; heavy chain variable region H5 (SEQ ID NO: 22), light chain variable region K1 (SEQ ID NO: 15) (antibody, V domains shown)", "VH": "QVQLQQSGAELKKPGASVKISCKASGYTLSSYWLEWVRQRPGQGLEWIGEILPGSGSTNYNEKFKGRATFTADTSTNTAYMELSSLTSEDSAVYYCAREGWYFDVWGQGTTVTVSS", "VL": "DVVMTQSPLSLPVTLGQPASISCRSSQSLLYSNGNTHLNWFQQRPGQSPRRLIYLVSNRDSGVPDRFSGSGSGTDFTLKISRVEAEDVGVYYCVQGTHFPYTFGGGTKLEIK", "modifications": "VH-H5; VL-K1"}},
  "key": {"[1]": {"test_system": "C. auris adhesion to HeLa cells", "test": "Adhesion assay, fungal adhesion to HeLa cell monolayer", "type": "cell-based", "conditions": "12 μg/ml, HeLa:yeast 1:1, 1 hour", "protocol": "In order to investigate the protective effect of hmAb 2G8 H5/K1 in preventing fungal adhesion to human cells commonly known to be preferred targets, C. auris cells were left adhering to a monolayer of HeLa cells together with the humanised mAb H5/K1, to reproduce an infection-medication scenario. 1.0×10^4 cervical cancer cells HeLa were suspended in RPMI+*10% FBS (pH 7) and plated in a 96-well plate for 2 hours at 37° C.+5% CO2. After incubation, the cells not attached at the bottom of the wells were washed away and 1.0×10^4 cells of C. auris suspended in RPMI+MOPS (0.165 M, pH 7) were added to reach a 1:1 ratio HeLa:yeast cells. Together with the yeast, 12 μg/ml of the humanised mAb 2G8 were added. PBS was used in the control sample. The plate was left at 37° C. for 1 hour and after washing 5 times, HeLa cells were lysed with PBS 0.1% Triton X100 (15 min. RT). The suspension was plated in PDA plate and incubated at 37° C. for 48 hours. This experiment has been repeated two times in triplicate."}, "[2]": {"test_system": "β-1,3-glucans on the surface of C. auris", "test": "Recognition of C. auris by flow cytometry and confocal microscopy", "type": "cell-based", "conditions": "12 μg/ml mAb", "protocol": "From an overnight inoculum, C. auris cells were washed with RPMI+MOPS (0.165 M, pH 7) and 3.0×10^6 cells were pelleted, suspended in Phosphate buffered saline (PBS) containing 3% (w/v) BSA (Bovine Serum Albumin—Sigma Aldrich) and put in contact with 12 μg/ml of the humanised mAb 2G8 for 1 hour at room temperature. The cells were then washed with PBS and marked with anti-human IgG FITC antibody 1:150 in PBS+3% BSA for 1 hour. The cells were then washed and fixed with paraformaldehyde 4% in PBS 1 hour at 4° C. After fixing and washing with PBS, the pellet was suspended in 400 μl of PBS and splitted in two tubes. The samples were analysed using flow cytometry and confocal microscopy, respectively.\nA Flow cytometer (FACScanto II, BDBioscences, Erembodegem, Belgium), equipped with three lasers (488 nm, 633 nm, 405 nm) was employed to collect and quantitate FITC fluorescence from different samples. Both autofluorescence and fluorescence derived from a specific binding of FITC-conjugated secondary Ab were quantitated by Flow Cytometry. […] The histogram CTRL evaluates the background from aspecific binding of FITC-conjugated secondary Ab, enabling to fix the threshold defining the positivity for the humanised mAb H5/K1 (treated). 97% of events express the antigen (treated panel). The expression was precisely quantitated by MFI values: the fold of increase is 164, when compared to control (FIG. 12B). Light grey events in FIG. 12A histograms represent cells outside the scatter area mainly occupied by the cells: i.e. aggregates or increase in cell size (as during senescence)."}, "[3]": {"test_system": "C. auris", "test": "Growth inhibition assay (CFU count)", "type": "cell-based", "conditions": "18 h at 37° C.", "protocol": "The growth inhibitory activity of humanised mAb 2G8 H5/K1 was tested as reported in W. Magliani et al, Nature Biotech. 1997; 15:155-158 with some modifications. In brief, 150-250 cells of C. auris in 10 μl of PBS were incubated with 100 μl of humanised mAb 2G8 at 250, 100 and 50 μg/ml (each concentration was tested in triplicate) and incubated for 18 h at 37° C. The inhibition was evaluated by seeding the yeast on PDA. The plates were incubated at 37° C. for 48 h and the inhibition was calculated by count of the CFU. The assay was performed in triplicate."}, "[4]": {"test": "ELISA assay on laminarin-coated plates", "type": "binding", "protocol": "The activity of the purified antibody was then tested by ELISA assay. 96-well plates were coated with 50 μg/ml Laminarin (Sigma-Aldrich, L9634) in 0.05 M carbonate buffer pH 9.6 overnight at 4° C. Nonspecific interactions were blocked with 100 μL/well blocking solution, 3% (w/v) BSA in PBS-Tween 20 (8 g/L NaCl, 0.2 g/L KH2PO4, 2.9 g/L Na2HPO4·12 H2O, 0.2 g/L KCI, 0.05% (v/v) Tween 20, pH 7.4) at 37° C. for 1 h. The plates were then incubated with decreasing concentrations of hmAb 2G8_first approach (comparative purpose) (from 3.12 μg/ml to 0.003 μg/ml, each concentration was tested in triplicate) in blocking solution for 2 h at 37° C. At the same temperature and for the same time, 100 μL Goat anti-human-HRP diluted 1:1000 in blocking solution was poured in each well. After every single passage the plates were washed 5 times with PBS-Tween 20. To reveal the binding, 100 μl of 5 mg-ABTS tablet (Roche Diagnostics) dissolved in 12 ml of sodium citrate (0.05 M, pH 3) and supplemented with 1:1000 dilution hydrogen peroxide (Carlo Erba) was added and after 15, 30, 45 and 60 min the absorbance at 405 nm was measured. For the whole measuring time the plates were left in the dark. IC50 analysis of ELISA test was performed with Prism. The TEST was performed in triplicate.\nThe surnatants collected from the obtained humanised mAb were tested in ELISA test.\nFour supernatants from hmAb according to the invention (H5/K3; H5/K1; H5/K7; H5/K5) were purified to confirm the data. 8 scalar dilutions, starting from 5 μg/ml, were tested.\nThe purified humanised mAb 2G8 H5/K1 was then tested in an ELISA assay using laminarin as a target."}},
  "data": [
    {"molecule": "B1", "values": [
      {"measurement": "reduction in fungal adhesion to mammalian cells", "setting": "[1]", "result": 51.5, "unit": "%"},
      {"measurement": "binding on confocal images", "setting": "[2]; confocal microscopy, FITC signal", "result": "recognize and bind β-1,3-glucans on the surface of C. auris"},
      {"measurement": "MFI fold of increase compared to control", "setting": "[2]; flow cytometry", "result": 164, "unit": "fold"},
      {"measurement": "events expressing the antigen (FITC positive)", "setting": "[2]; flow cytometry, 1 hour", "result": 97, "unit": "%"},
      {"measurement": "inhibition of yeast cell growth", "setting": "[3]; 50 μg/ml", "result": "over 60%"},
      {"measurement": "inhibition of yeast cell growth", "setting": "[3]; 100 μg/ml", "result": "over 70%"},
      {"measurement": "inhibition of yeast cell growth", "setting": "[3]; 250 μg/ml", "result": "over 70%"},
      {"measurement": "activity / affinity compared with murine 2G8", "setting": "[4]; ELISA", "result": "performs better than the original murine one"},
      {"measurement": "Abs 405 nm", "setting": "[4]; ELISA of supernatants of humanised mAbs", "result": 3.48},
      {"measurement": "performance in ELISA assay of purified hmAbs", "setting": "[4]; purified supernatants, 8 scalar dilutions from 5 μg/ml", "result": "best performer"}
    ]}
  ]
}
